The values below come from paper PMC5057102, “Fabrication of an antibody-aptamer sandwich assay for electrochemical evaluation of levels of β-amyloid oligomers”.

For data set [1], the target named is Amyloid beta 1-42 oligomers (UniProt P05067 672-713). The data set is described as follows: electrochemical antibody-aptamer sandwich (DPV); 20 nM, antibody capture; 0.1 M phosphate buffer (Na2HPO4/NaH2PO4) pH 7.4; incubations at 37 C (Abeta 60 min, aptamer-Au-Th 3 h); 1% BSA block. To be noted: label: gold nanoparticle, thionine.
Sequence of Amyloid beta 1-42 oligomers (P05067 672-713): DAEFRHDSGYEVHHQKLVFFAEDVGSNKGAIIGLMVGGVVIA
The target of data set [2] is Amyloid beta 1-40 oligomers (UniProt P05067 672-711). The data set is described as follows: electrochemical antibody-aptamer sandwich (DPV); 20 nM, antibody capture; response similar to 1-42 oligomers; 0.1 M phosphate buffer (Na2HPO4/NaH2PO4) pH 7.4; incubations at 37 C (Abeta 60 min, aptamer-Au-Th 3 h); 1% BSA block. As to conditions: label: gold nanoparticle, thionine.
Sequence of Amyloid beta 1-40 oligomers (P05067 672-711): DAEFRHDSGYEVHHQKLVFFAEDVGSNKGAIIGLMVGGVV

With GCCTGTGTTGGGGCGGGTGCG (ssDNA, 5'-HS (thiol)) [Abeta oligomer aptamer (thiolated, on AuNP with thionine)], the binding result in data set [1] and in data set [2] was “binds” throughout.
